Laboratory results reported in patent US20240400686A1 (CITY OF HOPE, published 2024).
Where a chain is given by its changes, count along the chain named. Names may count otherwise. Where two headings read alike, the source gives them in different places. Where no end group is shown, it is not given here. [ ]: non-standard residue; d: D form. pGlu = O=C1CC[C@@H](C(=O)O)N1

Experiments:
[1] = biological target: T1, recombinant human CD3epsilon/CD3gamma extracellular domain fused with human IgA1.Fc (human); experiment: SPR, Biacore T200: human CD3-IgA immobilised on a CM5 chip, antibody as analyte
T1 construct: also called human CD3e/CD3g proteins; human CD3 proteins
Experimental: Binding affinities for the different antibodies of interest were measured by surface plasmon resonance (SPR), using a Biacore T200 (GE Healthcare). Human CD3-IgA was immobilized to 200 RU on a CM5 (GE Life Sciences) chip using NHS chemistry. Analytes (CD3 antibodies) were diluted 2× in concentrations (from 12.5 nM to 0.125 nM) and flown over chip at a flow rate of 30 µl/min with HBS-EP+ buffer. Data were analyzed using Biacore T200 Evaluation software v3.0.

[2] = biological target: Cyno CD3εδ (cynomolgus monkey); experiment: SPR, sensorgrams at 3-100 nM; set-up not given
[3] = biological target: T2, CD3 epsilon N-terminal peptide (SEQ ID NO:13) (human and cynomolgus monkey (first …)); experiment: SPR on a CD3 peptide, concentration series 3-300 nM (sensorgrams in FIG. 25B)
T2 construct: also called CD3 peptide; CD3 epsilon peptide
T2 peptide: [pGlu]DGNEEMGGITQTPYK

[4] = biological target: T2, CD3 epsilon N-terminal peptide (SEQ ID …); experiment: SPR on a CD3 peptide, concentration series 3-300 nM
[5] = biological target: T2, CD3 epsilon N-terminal peptide (SEQ ID …); experiment: SPR on a CD3 peptide, concentration series 3-300 nM (sensorgrams in FIG. 25A)
[6] = biological target: T2, CD3 epsilon N-terminal peptide (SEQ ID …); experiment: SPR on a CD3 peptide, concentration series 3-300 nM
[7] = biological target: T2, CD3 epsilon N-terminal peptide (SEQ ID …); experiment: as above

Cyno CD3εδ (cynomolgus monkey), sequence (Q95LI5 22-117, stated change not applied, chain 1 of 2): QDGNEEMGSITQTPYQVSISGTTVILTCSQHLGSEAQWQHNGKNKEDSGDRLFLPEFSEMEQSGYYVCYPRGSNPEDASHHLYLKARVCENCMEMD
Cyno CD3εδ (cynomolgus monkey), sequence (Q95LI8 22-105, stated change not applied, chain 2 of 2, further chain): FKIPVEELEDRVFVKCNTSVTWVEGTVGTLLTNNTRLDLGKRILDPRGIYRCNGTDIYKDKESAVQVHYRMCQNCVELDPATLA

B1: antibody 3F11 (antibody, V domains shown)
VH: QVQLQQSGPDLVRPGASVKMSCKASGYTFTNYYVHWLNQRPGQGLEWIGWIYPGDGSTKFNEKFKGKTTLTADKSSSTAYILLSSLTSADSAIYFCTRDAGYYFDVWGAGTTVTVSS
VL: DIVMSQSPSSLAVSAGEKVTISCKSSQSLLNNRTRKNYLAWYQQKPGQSPKLLIYWASTRESGVPDRFTGSGSGTDFTLTISSVQAEDLAVYYCKQSYILRTFGGGTKLEIK
notes: Tested as mouse hybridoma antibody (culture supernatant or mAb); also called Clone 3F11
B1 gave a koff [1] of 0.0034 s⁻¹ and a kon [1] of 1.12e+07 M⁻¹ s⁻¹.

B2: mouse antibody 26H8 (antibody, V domains shown)
VH: QVQLQQSGPELVKPGASVRMSCKASGYTFTNYYIHWVRQRPGQGLEWIGWIYCGDGSTKFNEQFKDRTTLTADHSSSTAYMLLSSLTSEDSAIYFCARDWAGSYFFDFWGQGTTLTVSS
VL: B1 VL with I21M, N32S
notes: Tested as mouse hybridoma antibody (culture supernatant or mAb); also called Clone 26H8; 261H8
In the case of B2, the koff [1] is reported as 0.00062 s⁻¹ and the kon [1] is reported as 2.3e+06 M⁻¹ s⁻¹.

B3: humanized 26H8 Fab (Fab, V domains shown)
VH: QVQLQESGPGLVKPSETLSLTCTASGYTFTNYYIHWVRQSPGKGLEWIGWIYCGDGSTKFNEQFKDRTTLSADHSKTQASLKLSSVTAADTAIYFCARDWAGSYFFDFWGQGTMVTVSS
VL: DIQMTQSPSSLSASVGDRVTITCKSSQSLLNSRTRKNYLAWYQQKPGKAPKLLIYWASTRESGVPSRFSGSGSGTDFTFTISSLQPEDIATYYCKQSYILRTFGGGTKVEIKR
notes: a Fab; also called h26H8 Fab; h26H8
B3 was tested, and the Kd [2] was 36 nM, the koff [2] was 0.031 s⁻¹ and the kon [2] was 870000 M⁻¹ s⁻¹. The Kd [3] was 51.6 nM, the koff [3] was 0.0322 s⁻¹ and the kon [3] was 623000 M⁻¹ s⁻¹.

B4: H26H8 Fab H35F (Fab, V domains shown)
VH: B3 VH with H35F
VL: B3 VL
notes: Fab' fragment; phenylalanine at position 35 of the heavy chain variable domain; also called h26H8 H35F; h26H8 H35F Fab'
B4: no binding (tested: 300 nM) [4].

B5: H26H8 Fab C53S (Fab, V domains shown)
VH: B3 VH with C53S
VL: B3 VL
notes: Fab' fragment; serine at position 53 of the heavy chain variable domain; also called h26H8 C53S
B5 gave a Kd [5] of 116 nM, a koff [5] of 0.0658 s⁻¹ and a kon [5] of 569000 M⁻¹ s⁻¹.

B6: H26H8 Fab H35Y (Fab, V domains shown)
VH: B3 VH with H35Y
VL: B3 VL
notes: Fab' fragment; tyrosine at position 35 of the heavy chain variable domain; also called h26H8 H35Y; h26H8 H35Y Fab'
B6: no binding (tested: 300 nM) [6].

B7: H26H8 Fab Y33S (Fab, V domains shown)
VH: B3 VH with Y33S
VL: B3 VL
notes: Fab' fragment; serine at position 33 of the heavy chain variable domain; also called h26H8 Y33S; h26H8 Y33S Fab'
B7: no binding (tested: 300 nM) [7].
